Laboratory results as given in patent US9766250B2, “Method for detecting protein-protein interaction” (MEDICAL & BIOLOGICAL LABORATORIES CO., LTD., priority 2011, dated 2017).
Residue numbers refer to the chain shown, from its start.

B1: dimeric Azami-Green (AB) (protein)
chain: MVSVIKPEMKIKLCMRGTVNGHNFVIEGEGKGNPYEGTQILDLNVTEGAPLPFAYDILTTVFQYGNRAFTKYPADIQDYFKQTFPEGYHWERSMTYEDQGICTATSNISMRGDCFFYDIRFDGVNFPPNGPVMQKKTLKWEPSTEKMYVRDGVLKGDVNMALLLEGGGHYRCDFKTTYKAKKDVRLPDAHKVDHRIEILKHDKDYNKVKLYENAVARYSMLPSQAK
modifications: Synthetic sequence dAG(AB)
B2: dimeric Azami-Green (AC) (protein)
chain: B1 chain with V124T, A189Y, K191F
modifications: Synthetic sequence dAG(AC)
B3: COR3.01: fluorescent protein capable of homotetramerization, SEQ ID NO: 151 (protein)
chain: MALSKHGLTKNMTTKYRMEGCVDGHKFVITGDGIGDPFEGKQTSIDLCVVEGGPLPFSEDILSTVFDYGNRVFTKYPQDLVDYFKNSCPAGYTWQRSFLFEDGAVCTASADIRVSVEENCFYHESKFHGVNFPADGPVMKKMTTNWEPSCEKITPILNEGILKGDVTMFLLLKDGGRYRCQFDTVYKAKADAKKMPEWHFIQHELTREDRSDAKHQKWRLVENAIAYRSTLP
modifications: Synthetic sequence COR3.01
B4: COR5: fluorescent protein capable of homotetramerization, SEQ ID NO: 172 (protein)
chain: B3 chain with K194D, W198M, N223S, L231P
modifications: Synthetic sequence COR5
B5: TGuv: fluorescent protein capable of homotetramerization, SEQ ID NO: 147 (protein)
chain: MVSVIGKDMIMKLHVEGCVNGHSFKIEGDGKGKPYEGDQTVKLRVTEGGPLPFAFDILSASMCYGNRCFTKYPAEIPDIFKQTFPEGYSWERALTFEDGGFASSSSHISVRGNCFFYDVKYHGVNFPSNGPIMQRKTIGWQPSTEKLYIGEGTLKGDDTMFLKLEGGGTHKCHVLTTYKTKKDVQMPDSHFIDHRLLTSHLDKECNNVELREHAVARNSSLPSR
modifications: Synthetic sequence TGuv
B6: Kusabira-Cyan1 (protein)
chain: MVSVIKPEMKMRYYMDGSVNGHEFTVEGEGTGRPYEGKHKITLDVTKGGPLPFAFDLLSTVFSYGNRALTKYPDDIPDYFKQCFPGGYSWERKFEFEDGGLAIAKAEISLKGNCFEHKSTIEGTFPDSSPIMQNKTLGWEPSTEKMTVRDGSMKGDDAAYLKLVGGGNHKCYFTTTYTAKKKIPNLPGSHFIGHRISSVVEGTKIKVMEDAIAHLYPFNGS
modifications: Synthetic sequence KCy1
B7: monomericMidoriishi-Cyan1 (protein)
chain: MVSYSKQGIAQEMRTKYRMEGSVNGHEFTIEGVGTGNPYEGKQTSELVIIKPKGKPLPFSFDILSTVFQYGNRCFTKYPADMPDYFKQAFPDGMSYERSFLFEDGGVATASWSIRLEGNCFIHNSIYHGTNFPADGPVMKKQTIGWDKSSEKMSVAKEVLRGDVTQFLLLEGGGYQRCQLHSTYKTEKPVAMPPSHVVEHQIVRTDLGQTAKGFKVKLEEHAEAHVNPLKVK
modifications: Synthetic sequence mMiCy1
B8: monomeric Kusabira-Orange 2 (protein)
chain: MVSVIKPEMKMRYYMDGSVNGHEFTIEGEGTGRPYEGHQEMTLRVTMAEGGPMPFAFDLVSHVFCYGHRVFTKYPEEIPDYFKQAFPEGLSWERSLEFEDGGSASVSAHISLRGNTFYHKSKFTGVNFPADGPIMQNQSVDWEPSTEKITASDGVLKGDVTMYLKLEGGGNHKCQMKTTYKAAKEILEMPGDHYIGHRLVRKTEGNITEQVEDAVAHS
modifications: Synethetic sequence of monomeric version pf KO(Kusabira-Orange)
B9: Momiji: fluorescent protein capable of homotetramerization, SEQ ID NO: 149 (protein)
chain: MVSVIKDEMKVNLRMEGSVNGHDFVIDGLGSGKPKEGTQTIELKVVKGGPLPFAYDILTTAFHYGNRVFAKYPKDIPNYFEQSFPEGYSWERSMIFEDGGICIARNDITMDGGTFYNKVRFYGVNFPPNGPVMQKKTQKWEQSTEKMYARDGVLTGDINMALLLKGGGHYRCDFRTTYKAKEKGVKLPGYHFIDHCIEILSHRNDYNNVTLFEHAVARSGLQDKEKQQQ
modifications: Synthetic sequence Momiji

Molecular target: T1, mTOR(FRB) and FKBP12 interaction (Homo sapiens, UniProt P42345+P62942)
T1 construct: region having the 2025th to 2114th amino acids of the mTOR protein; expressed in transfected cells; host or cells: HeLaS3; 293T for some combinations with FKBP12-Tankyrase(SAM)
Experiment: Degree of fluorescent focus (assembly) formation after rapamycin, fluorescent proteins fused to mTOR(FRB) (Example 8, Table 1)
Assay type: cell-based
Parameters: key to degree of fluorescent focus formation, Tankyrase (SAM): +++: fluorescent foci were observed in 50% or more of the HeLaS3 cells; ++: fluorescent foci were observed in 50% or less of the HeLaS3 cells; +: fluorescent foci were observed in 293T cells expressing a larger amount of proteins than that in the HeLaS3 cells
Conditions: fluorescent protein fused to mTOR(FRB), with FKBP12-DGKd(SAM)
Procedure: Note that plasmid DNAs encoding fusion proteins composed of mTOR(FRB) and the corresponding fluorescent proteins were prepared as appropriate by the same method as that described in Example 2. Moreover, regarding the combinations of FKBP12-Tankyrase(SAM) with mKO2, mKeima, mMiCy1, mKO1, MiCy1, and TGuv, the test was conducted by introducing the genes into 293T cells. Specifically, the 293T cells were cultured in DMEM High glucose (manufactured by SIGMA ALDRICH CO.) containing 10% FBS (manufactured by Equitech-Bio Inc.). Moreover, the 293T cells were seeded onto an 8-well chamber (manufactured by Nunc A/S) 6 hours before the plasmid DNAs were introduced. Further, at the time of the transfection, 200 ng of the plasmid DNA encoding FKBP12-Tankyrase(SAM) and 200 ng of one of the plasmid DNAs encoding fusion proteins composed of the fluorescent proteins and mTOR(FRB) were diluted with 30 μl of OptiMEM (manufactured by Life Technologies Corporation), and 1.2 μl of TurboFect Transfection Reagent (manufactured by Thermo Fisher Scientific Inc.) was added thereto and stirred. Then, the resultant was further mixed with 300 μl of the culture solution, subsequently added to the 293T cells, and observed 48 hours later.

T1 sequence (P42345 2025-2114): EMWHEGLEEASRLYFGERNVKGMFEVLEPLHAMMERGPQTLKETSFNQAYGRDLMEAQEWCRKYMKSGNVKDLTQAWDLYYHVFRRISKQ
T1 sequence (P62942 whole entry): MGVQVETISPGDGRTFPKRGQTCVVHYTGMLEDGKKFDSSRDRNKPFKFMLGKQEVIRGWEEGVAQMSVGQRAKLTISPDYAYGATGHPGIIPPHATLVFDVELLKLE

| Molecule | degree of fluorescent focus formation, DGKd (SAM) |
| --- | --- |
| B1 | +++ (fluorescent foci were observed in 50% or more of the HeLaS3 cells) |
| B2 | +++ (fluorescent foci were observed in 50% or more of the HeLaS3 cells) |
| B3 | +++ (fluorescent foci were observed in 50% or more of the HeLaS3 cells) |
| B4 | +++ (fluorescent foci were observed in 50% or more of the HeLaS3 cells) |
| B5 | +++ (fluorescent foci were observed in 50% or more of the HeLaS3 cells) |
| B6 | +++ (fluorescent foci were observed in 50% or more of the HeLaS3 cells) |
| B7 | +++ (fluorescent foci were observed in 50% or more of the HeLaS3 cells) |
| B8 | +++ (fluorescent foci were observed in 50% or more of the HeLaS3 cells) |
| B9 | +++ (fluorescent foci were observed in 50% or more of the HeLaS3 cells) |

Same assay, conditions: fluorescent protein fused to mTOR(FRB), with FKBP12-TEL(SAM)

| Molecule | degree of fluorescent focus formation, TEL (SAM) |
| --- | --- |
| B1 | +++ (fluorescent foci were observed in 50% or more of the HeLaS3 cells) |
| B2 | +++ (fluorescent foci were observed in 50% or more of the HeLaS3 cells) |
| B3 | +++ (fluorescent foci were observed in 50% or more of the HeLaS3 cells) |
| B4 | +++ (fluorescent foci were observed in 50% or more of the HeLaS3 cells) |
| B5 | +++ (fluorescent foci were observed in 50% or more of the HeLaS3 cells) |
| B6 | +++ (fluorescent foci were observed in 50% or more of the HeLaS3 cells) |
| B7 | +++ (fluorescent foci were observed in 50% or more of the HeLaS3 cells) |
| B8 | ++ (fluorescent foci were observed in 50% or less of the HeLaS3 cells) |
| B9 | +++ (fluorescent foci were observed in 50% or more of the HeLaS3 cells) |

Same assay, conditions: fluorescent protein fused to mTOR(FRB), with FKBP12-Tankyrase(SAM), some combinations in 293T cells

| Molecule | degree of fluorescent focus formation, Tankyrase (SAM) |
| --- | --- |
| B1 | ++ (fluorescent foci were observed in 50% or less of the HeLaS3 cells) |
| B2 | ++ (fluorescent foci were observed in 50% or less of the HeLaS3 cells) |
| B3 | +++ (fluorescent foci were observed in 50% or more of the HeLaS3 cells) |
| B4 | +++ (fluorescent foci were observed in 50% or more of the HeLaS3 cells) |
| B5 | + |
| B6 | ++ (fluorescent foci were observed in 50% or less of the HeLaS3 cells) |
| B7 | + |
| B8 | + |
| B9 | +++ (fluorescent foci were observed in 50% or more of the HeLaS3 cells) |

Same assay, conditions: fluorescent protein fused to mTOR(FRB), with p62(PB1)-FKBP12

| Molecule | degree of fluorescent focus formation, P62 (PB1) |
| --- | --- |
| B1 | +++ (fluorescent foci were observed in 50% or more of the HeLaS3 cells) |
| B2 | +++ (fluorescent foci were observed in 50% or more of the HeLaS3 cells) |
| B3 | +++ (fluorescent foci were observed in 50% or more of the HeLaS3 cells) |
| B4 | +++ (fluorescent foci were observed in 50% or more of the HeLaS3 cells) |
| B5 | +++ (fluorescent foci were observed in 50% or more of the HeLaS3 cells) |
| B6 | +++ (fluorescent foci were observed in 50% or more of the HeLaS3 cells) |
| B7 | +++ (fluorescent foci were observed in 50% or more of the HeLaS3 cells) |
| B8 | +++ (fluorescent foci were observed in 50% or more of the HeLaS3 cells) |
| B9 | +++ (fluorescent foci were observed in 50% or more of the HeLaS3 cells) |

Molecular target: T1, mTOR(FRB) and FKBP12 interaction
Experiment: Degree of fluorescent focus (assembly) formation after rapamycin with TFG(PB1) (Example 9, Table 2)
Assay type: cell-based
Parameters: key: ++: fluorescent foci were observed in 50% or less of the HeLaS3 cells; +: fluorescent foci were observed in the 293T cells expressing a larger amount of proteins than that in the HeLaS3 cells
Conditions: fluorescent protein fused to mTOR(FRB), KO1 and dAG (AB) in 293T cells

| Molecule | degree of fluorescent focus formation, TFG (PB1) |
| --- | --- |
| B1 | + |
| B2 | ++ (fluorescent foci were observed in 50% or less of the HeLaS3 cells) |
| B3 | ++ (fluorescent foci were observed in 50% or less of the HeLaS3 cells) |
| B4 | ++ (fluorescent foci were observed in 50% or less of the HeLaS3 cells) |
| B9 | ++ (fluorescent foci were observed in 50% or less of the HeLaS3 cells) |
